This is an account of results in patent publication US20040181828A1 (E I DUPONT DE NEMOURS, published 2004).

For this assay, the target named is T1, ADGal4/rDr1 fusion protein (Gal4 activation domain fused to rice Dr1, encoded by pADGal4::rDr1) (rice).
T1 construct: Expressed in yeast YRG-2 for the two-hybrid assay; Coding region of rice Dr1 (EcoR I/Sma I fragment) fused in frame
T1 chain: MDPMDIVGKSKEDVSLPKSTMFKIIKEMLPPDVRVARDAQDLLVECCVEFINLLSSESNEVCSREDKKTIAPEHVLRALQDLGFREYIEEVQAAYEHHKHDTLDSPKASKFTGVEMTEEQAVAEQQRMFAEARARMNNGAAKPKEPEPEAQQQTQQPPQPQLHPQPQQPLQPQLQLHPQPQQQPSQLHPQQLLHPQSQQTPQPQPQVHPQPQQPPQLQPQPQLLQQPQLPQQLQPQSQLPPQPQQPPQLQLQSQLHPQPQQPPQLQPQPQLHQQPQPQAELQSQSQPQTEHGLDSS
The experiment in a line: yeast two-hybrid (Gal4 system, YRG-2), growth on medium lacking Trp, Leu and His. The source says: USA 88: 9578-9582). The rice Dr1 and DRAP1 cDNAs described in Example 5 were fused with pAD-Gal4 and pBD-Gal4 to generate pADGal4::rDr1 and pBDGal4::rDRAP1 constructs respectively. The EcoR I and Sma I fragment containing coding region of rice Dr1 was cloned into pAD-Gal4 EcoR I and Sma I sites to generate pADGal4::rDr1. The Mfe I and Pst I fragment containing coding region of rice DRAP1 was cloned into pBD-Gal4 EcoR I and Pst I sites to generate pBDGal4::rDRAP1. The pADGal4::rDr1 and pBDGal4::rDRAP1 were transformed independently and co-transformed into Stratagene's YRG-2 yeast strain (Stratagene, San Diego, Calif.). Competent YRG-2 cells were prepared according to the method of Eible (1992) Biotechniques 13:18-20) and transformed with one microgram of DNA added to a […] aliquot of competent yeast cells. A mixture containing 240 PI 50% PEG (MW 3350), 36 μl 1 M lithium acetate, and 50 μg of salmon sperm DNA was added to the yeast-DNA mixture. After mixing the mixture was incubated at 30° C. for 30 minutes and heat shocked at 42° C. for 20 minutes. Maximum of 200 μl of transformation mixture was plated on selective plates. For initial plating transformants containing the pADGal4::rDr1 construct (trp+), were plated on selection medium lacking tryptophan. […]

B1: Truncated rice DRAP1 (N-terminal deletion of 63 amino acids) fused to Gal4 DNA binding domain, encoded by pBDGal4::rDRAP1NN64 (other, not shown: large carriers)
chain: SFHLKQCVRRYSSFDFLTEVVNKVPDLGGADSCGDDRALPRRRKALPNGSDPENEESRSSKMAVRSANISPRGRGRGRGRGRGRPPTKRKEVGYVQFEDESSMFADQGEALPGEETVPETIHGTESVPPSTHPPAEAPSAAEIPAPNPKVEEAKNDDHQPDWPMPDAIGNIGVGPSGFGHLTVQVDEDEDYDNED
notes: Lacks the N-terminal 63 amino acids of rice DRAP1
Consider B1, for which the binding result is recorded as “no binding”.
